Test results taken from patent US20240067728A1.

Tests used:
[1] = molecular target: PD-L1 on CHO-PD-L1 cells (Promega PD-1/PD-L1 Blockade Bioassay) (UniProt Q9NZQ7)
[2] = molecular target: PD-L1-His antigen (human) (UniProt Q9NZQ7); test: SPR (Biacore T200), PD-L1-His immobilised on chip, antibody as mobile phase, 1:1 Binding fit
Chain of PD-L1-His antigen (human) (Q9NZQ7 other isoform, or with tags, fused parts or gaps limits assumed): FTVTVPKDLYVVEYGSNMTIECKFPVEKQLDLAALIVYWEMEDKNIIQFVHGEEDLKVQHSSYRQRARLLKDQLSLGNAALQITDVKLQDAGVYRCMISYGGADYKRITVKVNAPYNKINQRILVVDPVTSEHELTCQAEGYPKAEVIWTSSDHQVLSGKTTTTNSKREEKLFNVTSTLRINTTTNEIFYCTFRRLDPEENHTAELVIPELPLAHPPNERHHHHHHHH

Chain of PD-L1 on CHO-PD-L1 cells (Promega PD-1/PD-L1 Blockade Bioassay) (Q9NZQ7 19-290 limits assumed): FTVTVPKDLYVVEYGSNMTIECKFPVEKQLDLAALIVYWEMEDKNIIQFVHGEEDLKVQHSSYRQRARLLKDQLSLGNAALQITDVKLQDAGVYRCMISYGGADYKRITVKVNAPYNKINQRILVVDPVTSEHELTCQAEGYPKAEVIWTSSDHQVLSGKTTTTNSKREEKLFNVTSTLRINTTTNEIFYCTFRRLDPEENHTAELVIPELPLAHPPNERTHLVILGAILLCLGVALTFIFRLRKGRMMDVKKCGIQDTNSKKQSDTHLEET

Question: What does the source list for “ATE antibody (amino acid sequence identical to atezolizumab)”?
Answer: EC50 (luciferase reporter, PD-1/PD-L1 blockade MOA assay; blocked partner: PD-1 on Jurkat-PD1 cells) [1]: 0.087 µg/mL; Kd [2]: 1.84 nM
